Test results reported in US20060234285A1 (Human Genome Sciences, published 2006).

Tests used:
Assay in all cases: flow cytometry on transiently transfected cells
[1] = target: T1, TNFR2, on transiently transfected cells (UniProt P20333 23-461, limits assumed)
T1 construct: whole, on cells
T1 sequence (looked up): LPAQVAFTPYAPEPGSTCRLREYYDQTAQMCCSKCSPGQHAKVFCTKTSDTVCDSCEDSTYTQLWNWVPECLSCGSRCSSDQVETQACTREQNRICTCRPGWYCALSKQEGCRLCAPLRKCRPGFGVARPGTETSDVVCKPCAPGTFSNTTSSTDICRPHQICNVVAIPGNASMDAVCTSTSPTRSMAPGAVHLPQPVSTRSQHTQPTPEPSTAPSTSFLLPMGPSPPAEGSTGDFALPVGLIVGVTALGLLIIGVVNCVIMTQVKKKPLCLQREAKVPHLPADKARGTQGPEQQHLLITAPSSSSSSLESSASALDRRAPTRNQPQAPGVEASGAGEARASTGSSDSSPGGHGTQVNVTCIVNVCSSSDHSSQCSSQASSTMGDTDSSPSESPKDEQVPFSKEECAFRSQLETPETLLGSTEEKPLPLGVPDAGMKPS
Procedure: (§1) One million cells, in 0.1 ml of FACS buffer (PBS, 0.1% BSA, 0.1% NaN₃), were incubated with 0.1-1 microgram of protein or antibody at RT for 15 min. The cells were washed with 3 ml of FACS buffer, reacted with biotinylated primary antibody, and stained with PE-conjugated secondary antibody at RT for 15 min. Cells were then washed again, resuspended in 0.5 microgram/ml of propidium iodide, and live cells were gated and analyzed on a FACScan using the CellQuest software (BD Biosciences).

[2] = target: T2, LTβR, on transiently transfected cells (UniProt P36941 31-435)
T2 construct: whole, on cells
T2 sequence (P36941 31-435): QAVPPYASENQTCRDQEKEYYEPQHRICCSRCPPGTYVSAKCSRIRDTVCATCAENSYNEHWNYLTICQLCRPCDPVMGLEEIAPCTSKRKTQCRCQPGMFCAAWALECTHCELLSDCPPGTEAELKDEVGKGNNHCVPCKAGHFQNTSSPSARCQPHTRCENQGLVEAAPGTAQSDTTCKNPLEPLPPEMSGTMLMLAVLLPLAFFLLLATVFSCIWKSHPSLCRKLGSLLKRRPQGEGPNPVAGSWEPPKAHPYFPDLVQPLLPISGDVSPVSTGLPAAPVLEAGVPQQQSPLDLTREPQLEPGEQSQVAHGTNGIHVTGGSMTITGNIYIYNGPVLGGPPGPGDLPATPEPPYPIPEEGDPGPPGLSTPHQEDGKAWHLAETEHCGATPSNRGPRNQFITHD
Procedure: as §1

[3] = target: T3, CD30, on transiently transfected cells (UniProt P28908 19-595, limits assumed)
T3 construct: whole, on cells
T3 sequence (looked up): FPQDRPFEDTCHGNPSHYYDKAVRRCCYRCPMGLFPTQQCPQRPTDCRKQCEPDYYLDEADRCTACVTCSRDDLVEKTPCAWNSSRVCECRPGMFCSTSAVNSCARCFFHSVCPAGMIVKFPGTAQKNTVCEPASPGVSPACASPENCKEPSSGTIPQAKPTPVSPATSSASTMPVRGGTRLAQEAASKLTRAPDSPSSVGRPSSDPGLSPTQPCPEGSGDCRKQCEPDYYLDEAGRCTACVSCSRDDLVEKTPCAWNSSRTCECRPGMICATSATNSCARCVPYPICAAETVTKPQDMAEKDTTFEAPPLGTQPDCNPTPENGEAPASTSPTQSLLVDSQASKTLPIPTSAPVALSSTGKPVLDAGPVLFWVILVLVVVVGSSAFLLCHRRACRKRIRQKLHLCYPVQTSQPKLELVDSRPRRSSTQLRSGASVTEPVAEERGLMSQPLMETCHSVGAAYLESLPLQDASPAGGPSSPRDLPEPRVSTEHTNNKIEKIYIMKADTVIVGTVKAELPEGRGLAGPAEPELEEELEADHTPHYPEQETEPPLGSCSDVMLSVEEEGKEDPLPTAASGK
Procedure: as §1

[4] = target: T4, BCMA, on transiently transfected cells (UniProt Q02223 1-184, limits assumed)
T4 construct: whole, on cells
T4 sequence (looked up): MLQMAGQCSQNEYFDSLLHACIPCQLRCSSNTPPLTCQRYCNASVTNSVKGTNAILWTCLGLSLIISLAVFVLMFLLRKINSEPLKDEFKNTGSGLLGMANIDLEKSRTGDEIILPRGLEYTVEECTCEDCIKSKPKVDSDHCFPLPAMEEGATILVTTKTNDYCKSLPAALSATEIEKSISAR
Procedure: as §1

[5] = target: T5, DR4, on transiently transfected cells (UniProt O00220 24-468, limits assumed)
T5 construct: whole, on cells
T5 sequence (looked up): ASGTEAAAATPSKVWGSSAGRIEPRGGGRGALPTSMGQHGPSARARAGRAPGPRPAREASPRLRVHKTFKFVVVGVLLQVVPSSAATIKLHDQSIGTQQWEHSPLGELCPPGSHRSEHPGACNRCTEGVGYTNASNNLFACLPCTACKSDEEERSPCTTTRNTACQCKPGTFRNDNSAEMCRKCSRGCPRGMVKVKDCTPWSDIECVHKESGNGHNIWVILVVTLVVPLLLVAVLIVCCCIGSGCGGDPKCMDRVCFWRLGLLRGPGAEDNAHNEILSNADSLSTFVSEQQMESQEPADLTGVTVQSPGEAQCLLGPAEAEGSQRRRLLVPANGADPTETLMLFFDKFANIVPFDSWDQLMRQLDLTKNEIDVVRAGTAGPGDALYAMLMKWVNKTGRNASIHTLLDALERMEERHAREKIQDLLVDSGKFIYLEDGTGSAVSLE
Procedure: as §1

[6] = target: T6, DR5, on transiently transfected cells (UniProt O14763 56-440, limits assumed)
T6 construct: whole, on cells
Procedure: as §1

[7] = target: T7, DR6, on transiently transfected cells (UniProt O75509 42-655, limits assumed)
T7 construct: whole, on cells
T7 sequence (looked up): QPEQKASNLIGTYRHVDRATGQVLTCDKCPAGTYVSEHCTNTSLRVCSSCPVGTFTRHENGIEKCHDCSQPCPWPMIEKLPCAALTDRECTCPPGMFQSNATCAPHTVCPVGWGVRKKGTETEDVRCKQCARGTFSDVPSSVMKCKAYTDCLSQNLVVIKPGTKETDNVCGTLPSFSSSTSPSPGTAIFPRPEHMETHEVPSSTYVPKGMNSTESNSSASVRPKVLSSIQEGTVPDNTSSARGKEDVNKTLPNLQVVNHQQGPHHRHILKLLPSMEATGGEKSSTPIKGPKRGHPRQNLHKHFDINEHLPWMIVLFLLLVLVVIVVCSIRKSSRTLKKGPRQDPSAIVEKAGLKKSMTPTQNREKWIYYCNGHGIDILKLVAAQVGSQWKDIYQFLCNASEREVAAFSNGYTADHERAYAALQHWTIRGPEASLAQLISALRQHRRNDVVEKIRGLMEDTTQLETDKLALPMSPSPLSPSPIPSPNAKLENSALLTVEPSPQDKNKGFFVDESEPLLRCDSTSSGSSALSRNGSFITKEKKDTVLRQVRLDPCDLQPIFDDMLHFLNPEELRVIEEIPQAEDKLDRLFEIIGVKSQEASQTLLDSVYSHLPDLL
Procedure: as §1

Measured: binding result

B1: FLAG-tagged soluble form of TNF-gamma-beta (aa 72-251) (ligand, human, UniProt O95150 72-251, looked up, not shown: small tags and cut ends)
chain: LKGQEFAPSHQQVYAPLRADGDKPRAHLTVVRQTPTQHFKNQFPALHWEHELGLAFTKNRMNYTNKFLLIPESGDYFIYSQVTFRGMTSECSEIRQAGRPNKPDSITVVITKVTDSYPEPTQLLMGTKSVCEVGSNWFQPIYLGAMFSLQEGDKLMVNVSDISLVDYTKEDKTFFGAFLL
notes: also called FLAG-TL1β; FLAG-TNF-gamma-beta
no binding: all assays above
